Data as given in US20040220079A1 (OKLAHOMA MEDICAL RESEARCH FOUNDATION, published 2004).
No end group written: not given here.

B1: OM99-2 (peptide)
peptide: EVNLAAEF
modifications: also: Leu-Ala peptide bond replaced by hydroxyethylene isostere -CH(OH)-CH2- (Leu*Ala)
B2: OM99-1 (peptide)
peptide: VNLAAEF
modifications: also: Leu-Ala peptide bond replaced by hydroxyethylene isostere -CH(OH)-CH2-
notes: also called OMR99-1; Val-Asn-Leu*Ala-Ala-Glu-Phe

Assays:
recombinant memapsin 2 [1] = target: T1, recombinant memapsin 2 (human, UniProt P56817 14-454, limits assumed); assay: inhibition constant quoted in the crystallisation example
T1 construct: also called M2; beta-secretase

recombinant memapsin 2 [2] = target: T1, recombinant memapsin 2; assay: comparison of inhibition constants with and without P4 Glu
recombinant memapsin 2 [3] = target: T1, recombinant memapsin 2; assay: enzyme inhibition with a synthetic fluorogenic peptide substrate

T1 sequence (P56817 14-454 limits assumed): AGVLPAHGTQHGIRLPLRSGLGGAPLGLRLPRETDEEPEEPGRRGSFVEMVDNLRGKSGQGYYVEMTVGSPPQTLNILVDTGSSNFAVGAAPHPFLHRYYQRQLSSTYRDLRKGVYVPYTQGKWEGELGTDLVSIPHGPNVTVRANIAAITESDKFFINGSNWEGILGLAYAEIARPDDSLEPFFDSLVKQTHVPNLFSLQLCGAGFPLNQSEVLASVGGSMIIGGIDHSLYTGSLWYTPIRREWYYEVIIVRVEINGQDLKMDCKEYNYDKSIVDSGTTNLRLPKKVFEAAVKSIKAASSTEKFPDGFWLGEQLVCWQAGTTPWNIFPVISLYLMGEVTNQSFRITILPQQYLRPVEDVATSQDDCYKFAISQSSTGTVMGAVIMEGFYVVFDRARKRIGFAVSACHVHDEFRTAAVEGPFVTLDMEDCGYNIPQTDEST

Row | Binder | Ki (recombinant memapsin 2 [1]) [nM] | fold increase in Ki against OM99-2 (recombinant memapsin 2 [2]) [fold] | Ki (recombinant memapsin 2 [3]) [nM]
1 | B1 | 10 |  | 
2 | B2 |  | 10 | 30
